Measured values: patent publication US20260150817A1 (LEVERAGEN, published 2026)
Changes are numbered by the printed parent chain.

B1: M2S521_623 Nb-Fc (Fc fusion)
chain: EVQLQQSGPELVKPGASVKISCKASGYTFTDYYMKWEKQSHGKSLEWIGDINPNNGGTRYNQKFRGKATLTVDKSSSTAYMELRSLTSEDSAVYYCARLEDDYYGYAVDYWGQGTSVTVSS
notes: also called LVGN-S521623
B2: M2S521_72 Nb-Fc (Fc fusion)
chain: B1 chain with E37A, D50H, N54V, G57D, R59S, R65K, A79V, D102G, A107T, V108M
notes: also called LVGN-S52172
B3: MS521_35 Nb-Fc (Fc fusion)
chain: EVQLQQSGPELVKPGASVKISCKASGYTFTDYYMKWVKQRHGQSLEWIGNINPTNGDTNYSQNFKGKATLTVDKSSTTAYMELRSLTSEDSAVYYCARLEDGYYGYAVDYWGQGTSVTVSS
notes: also called LVGN-S52135
B4: M2S521_378 Nb-Fc (Fc fusion)
chain: B1 chain with E37V, N54K, R59N, R65K, G66D, D102G, V108I, G112S
notes: also called LVGN-S521378
B5: M2S521_193 Nb-Fc (Fc fusion)
chain: B1 chain with E37V, T58A, R65K, K67R, A97S, D102G
notes: also called LVGN-S521193
B6: M320_5 Nb-Fc (Fc fusion)
chain: EVQLQQSGPELVKPGASVKMSCKASGYTFTDYYIKWEKQSHGKSLEWIGDINPKNGETFYNQQFKGKATLTVDKSSSTAYMQLNSLTSEDSAVYYCARKEYGDYGYAVDYWGQGTSVTVSS
notes: also called LVGN-S3205
B7: M2S320_75 Nb-Fc (Fc fusion)
chain: B6 chain with I34M, E37L, S40N, K54N, E57D, Q63K, K74T, V108T
notes: also called LVGN-S32075
B8: M2S320_377 Nb-Fc (Fc fusion)
chain: B6 chain with I34V, E37K, K54N, E57D, Q63K, G66D, D103N, Y104F
notes: also called LVGN-S320377

Biological target: T1, Spike protein of the COVID-19 Spike-ACE2 Binding Assay Kit (Raybiotech) (SARS-CoV-2, UniProt P0DTC2 319-541)

First: B1
Second: B2
The IC50 of the first is 3.2-fold higher: 0.13 nM for the first, 0.041 nM for the second. The second is the more potent here.

Compared with B3, B4 is 4.5-fold higher in IC50: 0.49 nM for the first, 2.2 nM for the second.

Compared with B5, B6 is 2.5-fold higher in IC50: 0.16 nM for the first, 0.4 nM for the second.

Compared with B7, B8 is 13-fold higher in IC50: 0.12 nM for the first, 1.6 nM for the second. The first is the more potent here.

Biological target: T1, Spike protein of the COVID-19 …
Remark: another data set of the same source

B3 and B6 are within 1.5-fold of each other in IC50: 0.489 nM for the first, 0.397 nM for the second.
